Assay results: US20180021429A1, “ANTICANCER AGENTS OR ANTIMETASTATIC AGENTS USING FSTL1 AND COMBINATION DRUG THEREOF” (PHARMA FOODS INTERNATIONAL CO., LTD., priority 2015, published 2018)
Numbering of substitutions follows the chain as printed. “Also recorded” adds a separate entry of the source.

T1: FSTL1 (Homo sapiens, UniProt Q12841)
T1 sequence (Q12841 21-308): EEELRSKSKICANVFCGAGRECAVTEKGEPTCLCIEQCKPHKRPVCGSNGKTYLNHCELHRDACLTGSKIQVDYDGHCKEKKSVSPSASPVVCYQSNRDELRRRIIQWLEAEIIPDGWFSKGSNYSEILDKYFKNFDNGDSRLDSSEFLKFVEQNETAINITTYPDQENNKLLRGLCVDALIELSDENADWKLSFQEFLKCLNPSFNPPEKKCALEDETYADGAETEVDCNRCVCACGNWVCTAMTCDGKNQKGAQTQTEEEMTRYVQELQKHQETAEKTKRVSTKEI

B1: #5-8: chicken-mouse chimeric anti-FSTL1 antibody clone; variable regions SEQ ID NO: 771 (light), 773 (heavy) (antibody, V domains shown)
VH: AVTLDESGGGLQTPGGGLSLVCKGSGFTFSSFNMFWVRQAPGKGLEWVAGIGKDGVPKYGTAVDGRATISKDNGQSTMRLQLNNLRAEDTGTYFCAKAAGGCSYDWCGIYTGDIDTWGHGTEVIVSS
VL: ASTQPSSVSANPGEAVKITCSGGSGSYYGWYQQKSPGSAPVTVIYNNNQRPSDIPSRFSGSKSGSTATLTITGVQAEDEAVYFCGGYDSSTGHGGIFGAGTTLTVL
modifications: mouse constant regions
B2: #5-2: chicken-mouse chimeric anti-FSTL1 antibody clone; variable regions SEQ ID NO: 763 (light), 765 (heavy) (antibody, V domains shown)
VH: AVTLDESGGGLQTPGGGLSLVCKGSGFTFSSFNMFWVRQAPGKGLEWVAGVGKDGGTGYGAAVDGRATISKDNGQSTLRLQLNNLRAEDTGTYYCAKAAGGCSYGWCGSYVGDIDAWGHGTEVIVSS
VL: B1 VL
modifications: mouse constant regions
B3: #8-7: chicken-mouse chimeric anti-FSTL1 antibody clone; variable regions SEQ ID NO: 799 (light), 801 (heavy) (antibody, V domains shown)
VH: B1 VH with T61A, M78L, T111A
VL: B1 VL
modifications: mouse constant regions
B4: #8-4: chicken-mouse chimeric anti-FSTL1 antibody clone; variable regions SEQ ID NO: 795 (light), 797 (heavy) (antibody, V domains shown)
VH: B2 VH with F29L, G58A, K71R, N73S, L78V, Y94F, G105S, S109A, I114L
VL: ASSQPSSVSANPGETVKITCSGGSGYYYGWYQQKSPGSAPVTVIYNNDNKPSDIPSRFSGSKSGSTGTLTITGVQVEDEAVYFCGGYDNSGTGIFGAGTTLTVL
modifications: mouse constant regions

Legend:
[1] = biological target: T1, FSTL1; experiment: Inhibition of MSC induction by FSTL1 in mouse bone marrow cells, CD45-negative cells (Examples 6, 8, 12); assay type: cell-based; design: purchased R&D Systems, Inc. 1694-FN-050; conditions: antibody 10 μg/mL
Method: Mouse bone marrow cells prepared in the same way as in Example 4 were supplemented with 50 ng/mL (final concentration) of FSTL1 and 10 μg/mL of the anti-FSTL1 antibody (#5-2, #5-3, #5-8, #5-10, 45-43, #6-55, or #7-34) or a control antibody anti-DNP antibody and cultured under stimulation. 11 days thereafter, the number of cells was counted while the cells were stained with a PE-Cy5-labeled anti-CD45 antibody (BD Pharmingen/Becton, Dickinson and Company, Cat. No. 555484), and the content of CD45− negative cells reported to generally contain MSCs at a high rate was analyzed by flow cytometry using FACScan to calculate the percentage and number of MSCs per culture (FIG. 67A).
(§1) Mouse bone marrow cells prepared in the same way as in Example 4 were supplemented with 20 ng/mL (final concentration) of FSTL1 and 10 μg/mL of the anti-FSTL1 antibody (#5-2, #5-3, #5-8, #5-10, #5-43, #6-55, #8-1, #8-4, #8-7, and #8-8) or a control antibody anti-DNP antibody and cultured under stimulation. 8 days thereafter, the number of cells was counted while the cells were stained with a PE-Cy5-labeled anti-CD45 antibody, and the content of CD45− negative cells was analyzed by flow cytometry using FACScan to calculate the percentage and number of MSCs per culture (FIG. 68A).
as §1, with “(#5-2,” for “(#5-2, #5-3,”, “#5-8,” for “#5-8, #5-10, #5-43,”, “#6-55, #7-34,” for “#6-55,”, “#8-7, or” for “#8-7, and”, “(FIG. 69).” for “(FIG. 68A).”

[2] = biological target: T1, FSTL1; experiment: Inhibition of activation of tumor cells by FSTL1, RANKL- and CCR2-positive cells in human pancreatic cancer cell line Panc1 (Examples 5, 7, 9, 10, 11); assay type: cell-based; design: purchased R&D Systems, Inc. 1694-FN-050; conditions: FSTL1 50 ng/mL, antibody 10 μg/mL, 3 days
Method: It is known that tumor cells activated by stimulation with FSTL1 highly express molecule groups promoting bone metastasis and increase metastatic invasive capacity (Cancer Research 73: 6185, 2013). Thus, 2×10^7 cells/well of a human pancreatic cancer cell line Panc1 were suspended in 1 mL/well of D-MEM medium (GIBCO/Thermo Fisher Scientific Inc. Cat. No. C11885500BT) containing 10% fetal bovine serum, supplemented with 50 ng/mL (final concentration) of FSTL1 (R&D Systems, Inc.) and 10 μg/mL of the anti-FSTL1 antibody (#5-2, #5-8, #5-10, #5-43, #6-55, or #7-34) or its isotype mouse IgG (anti-DNP antibody) as a control antibody “Control”, and cultured under stimulation (6-well plate). 3 days thereafter, the number of cells was counted while the cells were stained with a PE-labeled anti-RANKL antibody (eBioscience Cat. No. 12-6619) and a PE-labeled anti-CCR2 antibody (R&D Systems, Inc. Cat. No. FAB151P) in order to examine the expression of markers indicating bone metastatic properties, and the contents of RANKL-positive cells and CCR2-positive cells were analyzed by flow cytometry using FACScan (Becton, Dickinson and Company) to calculate the numbers of cells per culture. […] Therefore, in Examples below, judgment was made with the number of cells as an index.
(§2) In the same way as in Example 5, a human pancreatic cancer cell line Panc1 was supplemented with 50 ng/mL (final concentration) of FSTL1 (R&D Systems, Inc.) and 10 μg/mL of the anti-FSTL1 antibody (the same clones as in Example 6) or a control antibody and cultured under stimulation. 3 days thereafter, the number of cells was counted while the cells were stained with a PE-labeled anti-RANKL antibody and a PE-labeled anti-CCR2 antibody, and the contents of RANKL-positive cells and CCR2-positive cells were analyzed by flow cytometry using FACScan (Becton, Dickinson and Company) to calculate the numbers of cells per culture (FIG. 67B).
as §2, with “20” for “50”, “FSTL1” for “FSTL1 (R&D Systems, Inc.)”, “(#5-2, #5-8, or #6-55)” for “(the same clones as in Example 6)”, “68B).” for “67B).”
as §2, with “FSTL1” for “FSTL1 (R&D Systems, Inc.)”, “(#5-2, #5-3, #6-55, #7-34, #8-1, #8-4, #8-7, or #8-8)” for “(the same clones as in Example 6)”, “culture.” for “culture (FIG. 67B).”
as §2, with “FSTL1” for “FSTL1 (R&D Systems, Inc.)”, “(#6-55)” for “(the same clones as in Example 6)”, “culture.” for “culture (FIG. 67B).”

[3] = Example 8, FSTL1 20 ng/mL, 8 days
[4] = Example 12, FSTL1 20 ng/mL, 8 days
[5] = Example 10, including newly obtained clones

Molecule	inhibitory activity against the expansion of CD45-negative cells by FSTL1 ([1]; Example 6, FSTL1 50 ng/mL, 11 days)	inhibitory activity against the expansion of CD45-negative cells by FSTL1 [1, 3]	inhibitory activity against the expansion of RANKL-positive cells and CCR2-positive cells ([2]; Example 7)	inhibitory activity against the expansion of CD45-negative cells by FSTL1 [1, 4]	inhibitory activity against the expansion of RANKL-positive cells and CCR2-positive cells [2, 5]
B1	higher inhibitory activity and substantially completely inhibited the action of FSTL1	Inhibitory activity was confirmed; also recorded: exhibited inhibitory activity	higher inhibitory activity		
B2				stronger inhibitory activity was confirmed in the order of clone #7-34, #5-2, 46-55, and #8-7; also recorded: higher inhibitory activity was confirmed in the order of #7-34, #5-2, #6-55, and #8-7; also recorded: stronger inhibitory activity was confirmed in the order of clone #7-34, #5-2, 96-55, and #8-7	higher inhibitory activity; also recorded: high inhibitory activity
B3				stronger inhibitory activity was confirmed in the order of clone #7-34, #5-2, 46-55, and #8-7; also recorded: higher inhibitory activity was confirmed in the order of #7-34, #5-2, #6-55, and #8-7; also recorded: stronger inhibitory activity was confirmed in the order of clone #7-34, #5-2, 96-55, and #8-7	higher inhibitory activity; also recorded: high inhibitory activity
B4		exhibited inhibitory activity			higher inhibitory activity; also recorded: high inhibitory activity
